# Test results published in article PMC5913336, “True equilibrium measurement of transcription factor-DNA binding affinities using automated polarization microscopy”.
# T1: Bcd homeodomain (Drosophila melanogaster, UniProt P09081-2 77-166)
# T1 sequence: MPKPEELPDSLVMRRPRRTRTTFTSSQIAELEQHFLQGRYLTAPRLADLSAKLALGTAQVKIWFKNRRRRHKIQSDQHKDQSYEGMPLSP
# B1: Bcd consensus (dsDNA)
# DNA 1: TCGACGGTAATCCCTA
# DNA 2: TAGGGATTACCGTCGA
# B2: Bcd oligo 20 (dsDNA)
# DNA 1: TCGACGGTAAGCCCTA
# DNA 2: TAGGGCTTACCGTCGA
# B3: Bcd oligo 18 (dsDNA)
# DNA 1: TCGACGGTATTCCCTA
# DNA 2: TAGGGAATACCGTCGA
# B4: Bcd oligo 11 (dsDNA)
# DNA 1: TCGACGGGAATCCCTA
# DNA 2: TAGGGATTCCCGTCGA
# B5: Bcd oligo 22 (dsDNA)
# DNA 1: TCGACGGTAATGCCTA
# DNA 2: TAGGCATTACCGTCGA
# B6: Bcd oligo 27 (dsDNA)
# DNA 1: TCGACGGTAATCACTA
# DNA 2: TAGTGATTACCGTCGA
# B7: Bcd oligo 23 (dsDNA)
# DNA 1: TCGACGGTAATTCCTA
# DNA 2: TAGGAATTACCGTCGA
# B8: Bcd oligo 9 (dsDNA)
# DNA 1: TCGACGATAATCCCTA
# DNA 2: TAGGGATTATCGTCGA
# B9: Bcd oligo 2 (dsDNA)
# DNA 1: TCGATGGTAATCCCTA
# DNA 2: TAGGGATTACCATCGA
# B10: Bcd oligo 26 (dsDNA)
# DNA 1: TCGACGGTAATCTCTA
# DNA 2: TAGAGATTACCGTCGA
# B11: Bcd oligo 21 (dsDNA)
# DNA 1: TCGACGGTAAACCCTA
# DNA 2: TAGGGTTTACCGTCGA
# B12: Bcd oligo 12 (dsDNA)
# DNA 1: TCGACGGAAATCCCTA
# DNA 2: TAGGGATTTCCGTCGA
# B13: Bcd oligo 28 (dsDNA)
# DNA 1: TCGACGGTAATCCGTA
# DNA 2: TACGGATTACCGTCGA
# B14: Bcd oligo 19 (dsDNA)
# DNA 1: TCGACGGTAACCCCTA
# DNA 2: TAGGGGTTACCGTCGA
# B15: Bcd oligo 29 (dsDNA)
# DNA 1: TCGACGGTAATCCTTA
# DNA 2: TAAGGATTACCGTCGA
# B16: Bcd oligo 1 (dsDNA)
# DNA 1: TCGAGGGTAATCCCTA
# DNA 2: TAGGGATTACCCTCGA
# B17: Bcd oligo 13 (dsDNA)
# DNA 1: TCGACGGTCATCCCTA
# DNA 2: TAGGGATGACCGTCGA
# B18: Bcd oligo 17 (dsDNA)
# DNA 1: TCGACGGTAGTCCCTA
# DNA 2: TAGGGACTACCGTCGA
# B19: Bcd oligo 10 (dsDNA)
# DNA 1: TCGACGGCAATCCCTA
# DNA 2: TAGGGATTGCCGTCGA
# B20: Bcd oligo 16 (dsDNA)
# DNA 1: TCGACGGTACTCCCTA
# DNA 2: TAGGGAGTACCGTCGA
# B21: Bcd oligo 30 (dsDNA)
# DNA 1: TCGACGGTAATCCATA
# DNA 2: TATGGATTACCGTCGA
# B22: Bcd oligo 15 (dsDNA)
# DNA 1: TCGACGGTTATCCCTA
# DNA 2: TAGGGATAACCGTCGA
# B23: Bcd oligo 24 (dsDNA)
# DNA 1: TCGACGGTAATACCTA
# DNA 2: TAGGTATTACCGTCGA
# B24: Bcd oligo 25 (dsDNA)
# DNA 1: TCGACGGTAATCGCTA
# DNA 2: TAGCGATTACCGTCGA
# B25: Bcd oligo 14 (dsDNA)
# DNA 1: TCGACGGTGATCCCTA
# DNA 2: TAGGGATCACCGTCGA
# Target: T1, Bcd homeodomain
# Experiment: FP; 33 mM phosphate pH 7.0, 90 mM NaCl, 0.01% Tween 20, 0.1 mM DTT, 0.5% agarose; room temperature
# Details: tags: N-GST (pGEX-6P-1, kept)
row,Binder,Kd [nM]
1,B1,2.2

# Same assay, conditions: tags: N-GST (pGEX-6P-1, kept); printed reverse strand differs at base 6 of strand 1 (G / C); complement of the forward strand used
row,Binder,Kd [nM]
1,B2,18.8
2,B3,128
3,B4,21.4
4,B5,92.1
5,B6,12.7
6,B7,27.2
7,B8,3.8
8,B9,2.66
9,B10,7.79
10,B11,48.8
11,B12,12.9
12,B13,3.67
13,B14,94.1
14,B15,4.03
15,B16,2.7
16,B17,64.3
17,B18,45.8
18,B19,20.6
19,B20,146
20,B21,5.18
21,B22,29.4
22,B23,47.8
23,B24,14.1
24,B25,8.98
